Biological target: casposon-encoded Aciduliprofundum boonei T469 Cas1 (Aciduliprofundum boonei T469)
Experiment: SEC; Superdex 200 16/60, step of the purification after TEV cleavage; data not shown

Substance: casposon-encoded Aciduliprofundum boonei T469 Cas1 (enzyme)
- stoichiometry N: 2
